Assay results taken from paper PMC4142144.

Molecular target: 2CARD^RIG-I(E52A)-CARD^MAVS(KKK) fusion protein, 16 aa linker (human) (UniProt O95786)
Assay: SEC-MALS

2CARD^RIG-I(E52A)-CARD^MAVS(KKK) fusion protein, 16 aa linker (from UniProt O95786 1-188; Q7Z434 1-97)
stoichiometry N: 4
